Measurements taken from patent publication US20240342207, “MODIFIED NUCLEIC ACID COMPOSITIONS AND ASSOCIATED METHODS FOR TREATMENT OF PHENYLKETONURIA” (BOARD OF REGENTS, THE UNIVERSITY OF TEXAS SYSTEM, published 2024).
Substitutions are numbered along the chain they refer to.

Experiments:
Assay in all cases: EMSA; one of 13 of 17 binding mutants; affinity not decreased
Details in all cases: tags: His-tag, E. coli; stem-loop
PAH I65S = biological target: T1, PAH I65S (Homo sapiens, UniProt P00439 P00439:1-452, I65S)
T1 sequence: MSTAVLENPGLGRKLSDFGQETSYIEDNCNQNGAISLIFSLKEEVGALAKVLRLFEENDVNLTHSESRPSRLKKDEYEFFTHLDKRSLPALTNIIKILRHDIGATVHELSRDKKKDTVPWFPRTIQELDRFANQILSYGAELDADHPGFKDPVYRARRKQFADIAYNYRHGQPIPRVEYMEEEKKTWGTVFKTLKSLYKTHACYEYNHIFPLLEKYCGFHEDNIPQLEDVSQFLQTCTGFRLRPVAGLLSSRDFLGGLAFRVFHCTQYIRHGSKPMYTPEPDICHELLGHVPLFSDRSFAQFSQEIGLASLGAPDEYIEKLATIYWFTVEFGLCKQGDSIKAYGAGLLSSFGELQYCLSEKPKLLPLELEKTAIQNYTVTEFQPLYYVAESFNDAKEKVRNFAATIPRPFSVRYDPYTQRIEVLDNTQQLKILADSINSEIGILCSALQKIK

PAH I318T = biological target: T2, PAH I318T (Homo sapiens, UniProt P00439 P00439:1-452, I318T)
T2 sequence: T1 sequence with S65I, I318T

PAH R408W = biological target: T3, PAH R408W (Homo sapiens, UniProt P00439 P00439:1-452, R408W)
T3 sequence: T1 sequence with S65I, R408W

PAH A47V = biological target: T4, PAH A47V (Homo sapiens, UniProt P00439 P00439:1-452, A47V)
T4 sequence: T1 sequence with A47V, S65I

PAH P281L = biological target: T5, PAH P281L (Homo sapiens, UniProt P00439 P00439:1-452, P281L)
T5 sequence: T1 sequence with S65I, P281L

Measured: binding result

CAAAAUGCAUAUGUAUCUUUG (ssRNA) [HULC 181-201 mimic]
binds: PAH I65S | PAH I318T | PAH R408W | PAH A47V | PAH P281L
